Assay results as given in paper PMC4596477, “Interaction of Myosin Phosphatase Target Subunit (MYPT1) with Myosin Phosphatase-RhoA Interacting Protein (MRIP): A Role of Glutamic Acids in the Interaction” (PLoS ONE, 2015).

What was measured:
MRIP^724-878 = molecular target: T1, MRIP^724-878 (Homo sapiens, UniProt Q6WCQ1); assay: SPR, MYPT1 peptides as analytes over immobilized MRIP^724-878; type: binding; details: 25°C, pH 7.4, CCLR 167–1 μM, CC 318–10 μM, LR 569–5 μM
T1 construct: MRIP^724-878 (residues 724–878; CC2-CC4); made in house; host or cells: Escherichia coli BL21 (DE3)
T1 sequence (Q6WCQ1 725-879): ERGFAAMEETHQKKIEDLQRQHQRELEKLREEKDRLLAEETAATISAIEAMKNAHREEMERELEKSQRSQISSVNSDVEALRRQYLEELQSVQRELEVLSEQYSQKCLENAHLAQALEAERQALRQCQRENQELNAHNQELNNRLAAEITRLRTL
Procedure: To corroborate the results from AUC studies, SPR was employed. […] Equilibrium K d values were obtained by nonlinear curve fitting of reference-corrected curves using the steady-state affinity fitting model in BIAevaluation version 4–1.
Analytes CCLR, CC, LR: Interactions between analytes, CCLR (167–1 μM), CC (318–10 μM), and LR (569–5 μM) with immobilized ligand, MRIP^724-878 (1800 RU) after correction for nonspecific binding using G-actin (2230 RU). Shown is a representative out of 9 experiments for CCLR and 8 for LR in each, duplicates or triplicates. Insets show fittings of steady-state affinity. Ligand LR: Interaction of analyte, MRIP^724-878 (85.6–0.7 μM) with immobilized ligand, LR (244.8 RU) after correction for nonspecific binding using a nebulin-derived peptide (600 RU). Shown is a representative out of 6 experiments.
Binding analyses of SPR were conducted on a Biacore 3000 (GE Healthcare) at 25°C. Sensor chips and reagents for immobilization (1-ethyl-3-(3-dimethylaminopropyl) carbodiimide, N-hydroxyl-succinimide, and ethanolamine) were purchased from GE Healthcare. Peptides were immobilized onto a CM5 sensor chip at 232–5841 resonance units (RU) using amine coupling. Binding studies were done using two-fold serial dilutions of the peptides in 50 mM potassium phosphate buffer (pH 7.4) containing 100 mM KCl. […]

[1] = ref [14]; cited from earlier work
Procedure: The concentration ranges of the MRIP peptides in the mixtures overlap with those of the MRIP peptides by themselves (Fig 2). Thus, the greater s* values of the MRIP/MYPT1 mixtures than those of the individual MRIP peptides indicate that MRIP^545-878 monomer, MRIP^724-878 dimer, and the mixture of monomer and dimer of MRIP^724-837 bind to CCLR. […] To obtain the binding stoichiometry, AUC was performed using MRIP^724-878/CCLR mixtures at different ratios of the two peptides. MRIP^724-878 was chosen because the AUC stu ... || To obtain the binding stoichiometry, a series of sedimentation equilibrium experiments was performed. MRIP^724-878 was chosen due to its being a single species. Owing to the absence of aromatic residues, LR was employed. AUC was conducted using MRIP^724-878 alone, LR alone, the 1:1 mixture of MRIP^724-878/LR, and the 1:3 mixture of MRIP^724-878/LR. Sedimentation data were collected both at 280 nm to detect only MRIP^724-878 and at 220 nm to detect both.

[2] = molecular target: T2, MRIP^724-878 (myosin phosphatase-RhoA interacting protein, residues 724–878; CC2-CC4) (UniProt Q6WCQ1 724-878); assay: SPR; Biacore 3000, 25°C; MRIP^724-878 immobilised (1800 RU) by amine coupling on CM5, analytes CCLR (167–1 μM), CC (318–10 μM), LR (569–5 μM); reference surface G-actin; 50 mM potassium phosphate pH 7.4, 100 mM KCl; steady-state affinity fit; details: both partners purified
T2 construct: Tight homodimer in solution by AUC; the forward primer puts an NdeI ATG before the codons GAGCGAGGGTTTGCAGCAATG; source: E. coli BL21 (DE3), purified (chitin beads, C8 reversed-phase HPLC)
T2 sequence (looked up): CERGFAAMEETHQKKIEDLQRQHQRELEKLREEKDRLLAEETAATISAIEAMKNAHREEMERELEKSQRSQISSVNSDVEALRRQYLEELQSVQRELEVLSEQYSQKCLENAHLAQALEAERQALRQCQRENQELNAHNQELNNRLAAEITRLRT

B1: CCLR, MYPT1 peptide (residues 924–1030) containing a putative coiled coil domain (CC) and the leucine repeat region (LR) (domain or fragment, UniProt O14974 924-1030, looked up)
chain: LEKDDSTDFKKLYEQILAENEKLKAQLHDTNMELTDLKLQLEKATQRQERFADRSLLEMEKRERRALERRISEMEEELKMLPDLKADNQRLKDENGALIRVISKLSK
notes: myosin phosphatase target subunit (MYPT1); also called C-terminal region of MYPT1; source: E. coli BL21 (DE3), purified (chitin beads, C8 reversed-phase HPLC)
In the case of B1, the “complex formation with immobilized MRIP^724-878” value (MRIP^724-878) is given as “formed complexes”, the self-association [1] is given as “reversible self-association” and the Kd [2] is given as 14 µM.
